In patent US5648214, “High-affinity oligonucleotide ligands to the tachykinin substance P” (University Research Corporation):

Key:
Substance P (SP) [1] = biological target: T1, Substance P (SP) (UniProt P20366); settings: equilibrium dialysis rough estimate at 20 uM RNA, fraction bound 0.017
T1 sequence: RPKPQQFFGLM

Substance P (SP) [2] = biological target: T2, Substance P (SP) (UniProt P20366); assay: high affinity class 3 ligand; single-point equilibrium dialysis, Kd value only in figure; settings: protein: synthetic; tags: synthetic peptide, C-terminal amide; Sigma; 3H-SP from NEN
T2 chain: RPKPQQFFGLM
Procedure: Equilibrium dialysis experiments were performed with a Spectra/Por® (Spectrum; Houston, Tex.) equilibrium dialyzer, Spectra/Por® (Spectrum; Houston, Tex.) microcell dialysis chambers (200-µl chamber volumes), and 12000–14000 MWCO dialysis membranes (Spectrum; Houston, Tex.). These membranes allow passage of SP but not 107-nt RNAs. Sample volumes were 200 µl on each side of the membrane (i.e., 200 µl per chamber). All experiments were at room temperature in 1× SP binding buffer. RNAs (unlabeled) were denatured prior to re-equilibration in binding buffer as described above for Experiment B. For binding curves (FIG. 4), RNA concentrations between 50 nM and 20 µM were utilized. Single point K_d estimates for individual Experiment B ligands were performed with 200 nM or 1 µM RNA. […] Equilibrium dialysis initiated with ^3H-SP on one side of the membrane and in the absence of RNA was performed to determine the length of time required to attain equilibrium (~2.5 hours for Spectra/Por®-2 membranes); dialysis times for binding measurements were at least one hour longer than this determined time. Following equilibration, samples were withdrawn from the dialysis chambers, added to scintillation fluid, and counted.

Row | Molecule | Kd (Substance P (SP) [1]) | binding result (Substance P (SP) [2])
1 | GGGAGCUCAGAAUAAACGCUCAANNNNNNNNNNNNNNNNNNNNNNNNNNNNNNNNNNNNNNNNNNNNNNNNNNNNNNNNNNNNUUCGACAUGAGGCCCGGAUCCGGC [unselected 60N RNA pool] | 1200 µM | –
2 | ligand B32 (ssRNA) RNA: GGGAGCUCAGAAUAAACGCUCAAAAAGGCACUGACCACCCUCAGGAAGAAUAACCGCGGUCACCCGCAUCCGAGUCUAUCAAUUUCGACAUGAGGCCCGGAUCCGGC | – | binds
